Experimental data taken from US20260234290.

Key:
Experiment in all cases: BLI
3B12 Fab = conditions: 2 uM Fab; RT; described as weak binding
2C11 Fab = conditions: 2 uM Fab; RT; weak binder
3B11 Fab = conditions: 2 uM Fab; RT; described as weak binding
2B12 Fab = conditions: 2 uM Fab; RT; weak binder; printed as second 3B12 in Table 4, 2B12 in text
3C8 Fab = conditions: 2 uM Fab; RT; described as weak binding

Question: For “CATTTCCCGTAAATC (double strand) [CS3D (cyclic STAT3 decoy)]”, which koff (3B12 Fab) is on record?
Answer: Its koff is 0.0764 s⁻¹.

Question: And the koff (2C11 Fab)?
Answer: The koff was 0.419 s⁻¹.

Question: What about the koff (3B11 Fab) of the same sequence?
Answer: Its koff is 0.205 s⁻¹.

Question: And the koff (2B12 Fab)?
Answer: Its koff is 0.37 s⁻¹.

Question: And the koff (3C8 Fab)?
Answer: The koff was 0.277 s⁻¹.
